Results on one molecule are retold here after patent US20240043859A1, “HERBICIDE-RESISTANT PROTEIN, AND GENE AND USE THEREOF” (QINGDAO KINGAGROOT CHEMICAL COMPOUND CO., LTD., priority 2020, published 2024).

“Also recorded” adds a separate entry of the source.

What all share (type): in vivo
Test [1] deals with Arabidopsis thaliana. Put plainly: Herbicide resistance of transgenic Arabidopsis thaliana seedlings on plate medium (root growth). Conditions: Arabidopsis overexpressing the gene. The method in brief:
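After 3 days of cold treatment at 4 °C, seeds were cultured at 22 °C under a 16 h/8 h light cycle on MS herbicide medium (0.3 μM 2,4-D in the screen). Root growth was scored against wild-type seedlings at one week. The material was T2 AAD-overexpressing lines (AtUbi10 promoter, MAS terminator, hygromycin marker), two events each, tested with 2,4-D, 2,4-DB sodium and MCPA.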

A further test concerns soybean William82. Put plainly: Spray testing of transgenic soybean T1 seedlings. The following applies: 2,4-D 4.48 kg/ha foliage spray, 10 days after spraying. The source says:
1. Vector construction: the pQY2330 vector (see FIG. 8-1) was used as the overexpression vector, containing a Bar resistance gene that can be used as a selection marker for glufosinate. The AAD-like gene, QYD42, SEQ ID NO. 83, was linked to the Xho I restriction site by seamless cloning to construct the transgenic expression vector pQY2330, of which the expression cassette consisted of a double CaMV35S promoter, the AAD-like gene QYD42 and a […] Nos terminator.
2. Genetic transformation of soybeans: Soybean transformation was carried out using the Agrobacterium-mediated cotyledon nodes transformation method (Pareddy D, Chennareddy S, Anthony G, et al. Improved soybean transformation for efficient and high throughput transgenic production[J]. Transgenic Research, 2020, 29(968)). A monoclone of the Agrobacterium (EHA105) comprising the overexpression vector pQY2330 was inoculated into 5 ml YEP liquid medium (containing 25 mg/L Rifampicin and 50 mg/L Kanamycin) and shaking-cultured at 220 rmp/min, 28° C. for 8 hours. And then 0.2-0.3 ml bacteria solution was transferred to 200 ml YEP liquid medium (containing 25 mg/L Rifampicin and 50 mg/L Kanamycin) and shaking-cultured at 220 rmp/min, 28° C. overnight until the bacteria reached the exponential growth stage, then centrifuged at 4000 rmp/min for 20 min to collect the cells into a 50 ml centrifuge tube (sterilized). […]

The test system of test [2] is Arabidopsis thaliana. Put plainly: Herbicide resistance of transgenic Arabidopsis thaliana seedlings on plate medium (root growth). Conditions: plate medium with 2,4-D (0.3 μmol).

B1: QYD42: AAD-like enzyme, SEQ ID NO. 83; expressed from vectors pQY2309 (Arabidopsis), pQY2329 (maize), pQY2330 (soybean) (protein)
chain: MQITPIADATFGATVTGLRLATLDDAGFARLHAAWLQHALLVFPGQFLTNAEQIGFAKRFGPIERIGGGDIVAISNVKADGTVRQHSPAEWDDMMKVIVGNMAWHADSTYMPVMAQGAVFSAEVVPPTGGRTCFADMRAAYDALDDATRALVHQRSARHSLVYSQSKLGHVQQAGSAYVGYGMDTTATPLRPLVKRHPETGRLSLLIGRHAHAIPGLEEAESERFLEDLVAWACQPPRVVAHHWTAGDVVLWDNRCLLHRAEPWDFTLPRVMWHSRLAGHPETEAAPLV
modifications: Synthetic polypeptide, QYD42, D42
On to B1, for which, in the test with Arabidopsis thaliana [1], the “Resistance of transgenic Arabidopsis thaliana: 2,4-D” value is “Yes” and the “Resistance of transgenic Arabidopsis thaliana: MCPA” value was “Yes”. The “Resistance of T1 transgenic soybean to 2,4-D (spray)” value with soybean William82 is “no phytotoxicity; also recorded: remains normal”. For the same molecule, in the test on Arabidopsis thaliana [2], the “2,4-D resistance of T1 generation transgenic seedlings (seminal root growth)” value was “showing tolerance to 2,4-D”.
